Assay results from patent US20230242623A1 (GEORGIA TECH RESEARCH, published 2023).

B1: 3A2 (antibody, V domains shown)
VH: QVTLKESGPGILQPSQTLSLTCSFSGFSLSTSGMGVSWIRQPSGKGLEWLAHIYWDDDKRYNPSLKSRLTISKDTSSSQVFLKITSVDTVDTATYYCARRGPLITTDGTFDVWGAGTTVTVSS
VL: DIVMTQSRKFMSTSVGDRVSITCKASQDVGTSVAWYQQKPGQSPKLLIYWASTRHTGVPDRFTGSGSGTDFTLTINSVQSEDLADYFCQQYSSYPYTFGGGTKLEMK
notes: also called 3A2 clone
B2: 3F2 (antibody, V domains shown)
VH: QVQLQQPGAELVKPGASVKMSCKASGYTFTSYSLHWVKQTPGQGLEWIGAVYPGNDDTSYNQNFKGKATLTADKSSNTAYMQLSSLTSEDSAVYYCARDGYFAMDYWGQGTSVTVSS
VL: DIVMSQSPSSLAVSVGEKVTMSCKSSQSLLYSTNQKNYLAWYQQKPGQSPKLLIYWASTRESGVPDRFTGSGSGTDFTLTISSVKAEDLAVYYCHQYYSYPWTFGGGTKLEIK
notes: also called 1-3F2
B3: 3H2 (antibody, V domains shown)
VH: QVQLQQSGAELMKPGASVKISCKATGNTFSNYWIEWVKQRPGHGLEWIGEILPGSDSTNYNEKFKGKATFTADTSSKTAYMQLSSLTSEDSAVYYCARNRFYWYFDVWGAGTTVTVSS
VL: DVVMTQTPLSLPVSLGDQASISCRSSQSLVHSNGNTYLHWYLQKPGQSPKLLIYKVSNRFSGVPDRFSGSGSGTDFTLKISRVEAEDLGIYFCSQSTHVPWTFGGGTKLEIK
notes: also called 1-3H2
B4: 3B3 (antibody, V domains shown)
VH: DVQLQESGPGLVKPSQSLSLTCTVTGYSITSDYAWIWIRQFPGNKLEWMAYISYSGTTSYNPSLKSRISITRDTSKNQFFLQLNSVTTEDTATYYCAGRRGAYYGNYEEDYWGRGTSVTVSS
VL: QIVLTQSPAIMSASPGEKVTMTCSSSSIVNYMYWYQQKPGSSPRLLIYDTSTLASGVPVRFSGSGSGTSYSLTISRMEAEDAATYYCQQWSSYPYTFGGGTKLEIK
notes: also called 3B3 clone; 1-3B3
B5: 3F5 (antibody, V domains shown)
VH: B1 VH
VL: B1 VL
notes: also called 1-3F5
B6: 3A7 (antibody, V domains shown)
VH: B1 VH
VL: B1 VL
notes: also called 3A7 clone

These binders were tested against T1, SARS-CoV-2 RBD (RBD-luciferase antigen of the split-luciferase reporter) (SARS-CoV-2, UniProt P0DTC2 319-541) (assay: split-luciferase reporter of RBD-hACE2 interaction; antibody against hACE2).
T1 construct: domain: RBD
In the case of B1, the “% inhibition of RBD-hACE2 binding” value is reported as > 80%.
For B2, the “% inhibition of RBD-hACE2 binding” value was > 80%.
B3 was tested, and the “% inhibition of RBD-hACE2 binding” value was > 80%.
B4 was tested, and the “% inhibition of RBD-hACE2 binding” value was > 80%.
B5 was tested, and the “% inhibition of RBD-hACE2 binding” value was > 80%.
B6 was tested, and the “% inhibition of RBD-hACE2 binding” value was > 80%.
